The values that follow come from paper PMC8827053 (RSC Chemical Biology, 2021).

What all share (type): cell-based
For data set [1], the system named is SH-SY5Y cells. The data set is described as follows: Neuronal rescue from Aβ42-induced toxicity. The settings on record: Aβ42 10 μM preincubated 48 h pH 7.4, 24 h treatment, Alamar blue. On the technique in general: The colour change of resazurin is a common sign of viable cells or microbes.
Data set [2] concerns SH-SY5Y cells. The data set is described as follows: Membrane toxicity immunocytochemistry. The settings on record: Aβ42 10 μM, 3 h, pH 7.4, OC antibody, confocal.
The subject of data set [3] is SH-SY5Y cells. Briefly: Live/dead assay. As to conditions: Aβ42 10 μM, 24 h, calcein-AM/propidium iodide, ImageJ analysis.

As to “Aβ42: Amyloid beta 42 peptide, the most toxic form of Aβ (PDB: 1Z0Q)”, the “Cell viability with Aβ42 alone” value in the data set on SH-SY5Y cells [1] is around 64%. For the same substance, the “Total area covered by red fluorescence-labelled Aβ aggregates, Aβ42 alone” value in the data set with SH-SY5Y cells [2] is reported as 12.3%. Also, the “Dead cells, Aβ42 alone” value in the data set on SH-SY5Y cells [3] was around 36%.
